Test results published in IntAct's records for PubMed 19468300.

B1: Protein ECT2 (Homo sapiens), Q9H8V3-4 (parent)
chain: MAENSVLTSTTGRTSLADSSIFDSKVTEISKENLLIGSTSYVEEEMPQIETRVILVQEAGKQEELIKALKDIKVGFVKMESVEEFEGLDSPEFENVFVVTDFQDSVFNDLYKADCRVIGPPVVLNCSQKGEPLPFSCRPLYCTSMMNLVLCFTGFRKKEELVRLVTLVHHMGGVIRKDFNSKVTHLVANCTQGEKFRVAVSLGTPIMKPEWIYKAWERRNEQDFYAAVDDFRNEFKVPPFQDCILSFLGFSDEEKTNMEEMTEMQGGKYLPLGDERCTHLVVEENIVKDLPFEPSKKLYVVKQEWFWGSIQMDARAGETMYLYEKANTPELKKSVSMLSLNTPNSNRKRRRLKETLAQLSRETDVSPFPPRKRPSAEHSLSIGSLLDISNTPESSINYGDTPKSCTKSSKSSTPVPSKQSARWQVAKELYQTESNYVNILATIIQLFQVPLEEEGQRGGPILAPEEIKTIFGSIPDIFDVHTKIKDDLEDLIVNWDESKSIGDIFLKYSKDLVKTYPPFVNFFEMSKETIIKCEKQKPRFHAFLKINQAKPECGRQSLVELLIRPVQRLPSVALLLNDLKKHTADENPDKSTLEKAIGSLKEVMTHINEDKRKTEAQKQIFDVVYEVDGCPANLLSSHRSLVQRVETISLGEHPCDRGEQVTLFLFNDCLEIARKRHKVIGTFRSPHGQTRPPASLKHIHLMPLSQIKKVLDIRETEDCHNAFALLVRPPTEQANVLLSFQMTSDELPKENWLKMLCRHVANTICKADAENLIYTADPESFEVNTKDMDSTLSRASRAIKKTSKKVTRAFSFSKTPKRALRRALMTSHGSVEGRSPSSNDKHVMSRLSSTSSLAGIPSPSLVSLPSFFERRSHTLSRSTTHLI
partner: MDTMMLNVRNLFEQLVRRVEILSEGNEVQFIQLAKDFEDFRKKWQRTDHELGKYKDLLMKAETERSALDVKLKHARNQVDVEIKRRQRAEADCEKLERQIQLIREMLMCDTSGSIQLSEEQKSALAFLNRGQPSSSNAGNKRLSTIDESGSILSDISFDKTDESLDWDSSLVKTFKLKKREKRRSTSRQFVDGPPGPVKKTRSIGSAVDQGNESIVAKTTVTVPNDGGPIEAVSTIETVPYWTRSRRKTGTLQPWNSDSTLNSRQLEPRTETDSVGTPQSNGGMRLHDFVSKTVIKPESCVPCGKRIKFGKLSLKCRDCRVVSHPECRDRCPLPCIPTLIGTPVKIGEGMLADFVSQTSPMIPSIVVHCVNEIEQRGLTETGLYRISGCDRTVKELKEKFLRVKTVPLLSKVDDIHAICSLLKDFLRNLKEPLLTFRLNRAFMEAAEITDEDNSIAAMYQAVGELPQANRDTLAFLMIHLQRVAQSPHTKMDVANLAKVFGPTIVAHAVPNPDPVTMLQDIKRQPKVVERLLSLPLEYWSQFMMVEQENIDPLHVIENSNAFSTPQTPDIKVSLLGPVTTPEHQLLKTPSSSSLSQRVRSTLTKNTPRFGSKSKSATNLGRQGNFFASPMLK
B2: Rac GTPase-activating protein 1 (Homo sapiens), Q9H0H5 (parent)
chain: B1 partner
partner: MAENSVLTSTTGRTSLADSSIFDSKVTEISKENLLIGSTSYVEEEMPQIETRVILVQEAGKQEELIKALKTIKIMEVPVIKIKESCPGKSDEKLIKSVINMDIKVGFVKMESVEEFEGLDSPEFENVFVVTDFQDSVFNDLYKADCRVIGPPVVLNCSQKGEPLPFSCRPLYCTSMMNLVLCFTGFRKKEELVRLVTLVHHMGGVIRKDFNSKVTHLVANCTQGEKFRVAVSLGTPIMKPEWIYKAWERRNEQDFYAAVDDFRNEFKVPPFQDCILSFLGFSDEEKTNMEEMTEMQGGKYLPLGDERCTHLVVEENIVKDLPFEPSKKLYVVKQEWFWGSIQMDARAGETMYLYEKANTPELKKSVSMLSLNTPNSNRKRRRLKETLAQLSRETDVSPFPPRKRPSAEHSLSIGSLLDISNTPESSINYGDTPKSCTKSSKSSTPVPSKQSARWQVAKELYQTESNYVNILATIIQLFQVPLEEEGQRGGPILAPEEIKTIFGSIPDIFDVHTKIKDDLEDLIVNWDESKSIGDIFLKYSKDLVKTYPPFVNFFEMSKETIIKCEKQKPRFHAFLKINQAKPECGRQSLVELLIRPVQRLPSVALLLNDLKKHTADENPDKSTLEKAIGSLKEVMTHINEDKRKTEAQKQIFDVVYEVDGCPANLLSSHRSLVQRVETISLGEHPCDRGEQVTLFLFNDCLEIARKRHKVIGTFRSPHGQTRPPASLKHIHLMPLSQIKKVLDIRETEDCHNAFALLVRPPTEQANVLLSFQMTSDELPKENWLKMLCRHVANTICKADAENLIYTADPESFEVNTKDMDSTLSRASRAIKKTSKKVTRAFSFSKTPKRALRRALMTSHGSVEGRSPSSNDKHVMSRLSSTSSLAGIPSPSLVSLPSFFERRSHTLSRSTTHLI
B3: Protein regulator of cytokinesis 1 (Homo sapiens), O43663 (parent)
chain: MRRSEVLAEESIVCLQKALNHLREIWELIGIPEDQRLQRTEVVKKHIKELLDMMIAEEESLKERLIKSISVCQKELNTLCSELHVEPFQEEGETTILQLEKDLRTQVELMRKQKKERKQELKLLQEQDQELCEILCMPHYDIDSASVPSLEELNQFRQHVTTLRETKASRREEFVSIKRQIILCMEALDHTPDTSFERDVVCEDEDAFCLSLENIATLQKLLRQLEMQKSQNEAVCEGLRTQIRELWDRLQIPEEEREAVATIMSGSKAKVRKALQLEVDRLEELKMQNMKKVIEAIRVELVQYWDQCFYSQEQRQAFAPFCAEDYTESLLQLHDAEIVRLKNYYEVHKELFEGVQKWEETWRLFLEFERKASDPNRFTNRGGNLLKEEKQRAKLQKMLPKLEEELKARIELWEQEHSKAFMVNGQKFMEYVAEQWEMHRLEKERAKQERQLKNKKQTETEMLYGSAPRTPSKRRGLAPNTPGKARKLNTTTMSNATANSSIRPIFGGTVYHSPVSRLPPSGSKPVAASTCSGKKTPRTGRHGANKENLELNGSILSGGYPGSAPLQRNFSINSVASTYSEFAKDPSLSDSSTVGLQRELSKASKSDATSGILNSTNIQS

Variants of: B1
Details: with rgap1_human RACGAP1, Q9H0H5

Variant	effect of a mutation on the interaction
T153A	disrupting interaction strength
T153A;K195A	disrupting interaction strength
K195A	disrupting interaction

Variants of: B2
Details: with ect2_human ECT2, Q9H8V3

Variant	effect of a mutation on the interaction
S149A;S157A;S164A;S170A	disrupting interaction

Variants of: B3
Details: with plk1_human PLK1, P53350
plk1_human PLK1, P53350, sequence (P53350 whole entry): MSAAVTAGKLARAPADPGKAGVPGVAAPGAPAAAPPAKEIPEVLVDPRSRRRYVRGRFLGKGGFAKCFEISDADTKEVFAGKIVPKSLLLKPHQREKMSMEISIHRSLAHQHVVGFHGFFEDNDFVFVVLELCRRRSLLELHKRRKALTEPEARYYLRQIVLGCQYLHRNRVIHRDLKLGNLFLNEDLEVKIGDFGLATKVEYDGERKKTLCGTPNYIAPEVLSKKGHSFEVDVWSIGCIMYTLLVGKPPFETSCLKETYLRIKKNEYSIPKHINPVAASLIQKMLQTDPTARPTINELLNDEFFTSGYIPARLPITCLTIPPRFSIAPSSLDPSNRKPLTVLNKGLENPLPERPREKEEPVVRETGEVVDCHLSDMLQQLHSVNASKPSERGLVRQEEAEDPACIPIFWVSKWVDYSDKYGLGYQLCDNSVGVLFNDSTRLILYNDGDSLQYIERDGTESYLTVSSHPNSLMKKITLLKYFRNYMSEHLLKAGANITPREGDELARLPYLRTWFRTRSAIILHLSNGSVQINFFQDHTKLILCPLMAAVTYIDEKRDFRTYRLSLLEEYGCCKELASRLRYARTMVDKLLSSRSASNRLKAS

Variant	effect of a mutation on the interaction
S615A;T616A	disrupting interaction strength
